This note sets out measurements from US20210139907, “MATERIALS AND METHODS FOR THE DELIVERY OF THERAPEUTIC NUCLEIC ACIDS TO TISSUES” (UNIVERSITY OF MIAMI, published 2021).

The series has as its target TMED6 (Homo sapiens, UniProt Q8WW62 Q8WW62:22-240). Description: competition; recombinant TMED6 (aptamer/protein molar ratio 1/1-1/10) dose-dependently inhibits aptamer staining of human pancreas sections. The following applies: tags: HuProt v2.0 protein array (Arrayit); label: Cy3. As to the method: To identify the target of aptamer 1-717, protein arrays (HuProt™v2.0, Arrayit) were used. These protein arrays contains more than 19,000 human recombinant proteins allowing, by informatics analysis, the identification of the cognate protein of antibodies, peptides, or protein. This technology has been adapted for the identification of aptamer's ligands. Briefly, pre-blocked arrays were hybridized with 1 μg of cy3 labeled 1-717 or m12-3773 in blocking buffer for 30′ at RT. Arrays were washed, read in triplicate on a Genepix microarray reader and analyzed by an ad hoc generated software. This software 1) acquires the data from the gpr file, 2) adds a description column with (GeneID, Control, blank, ND), 2) use a optimized “plotArray” function modified in several points (the script was implemented for a specific protein array, plus some problem in UTF file format), 3) performs a quality control that includes a microarray image rebuilding the generation of MA plots, 4) normalized the data and substracts the background; and 5) analyze the differential expression between arrays via graphs of p-value distribution, volcano plot, and analysis of significant modulation by t-test. This analysis proposed TMED6 (NM144676.1, protein id Q8WW62) as the most likely ligand of aptamer 1-717. […] Images were acquired by a fluorescence microscope and aptamer binding quantified by cellprofiler.

Sequence of TMED6 (Q8WW62 22-240, one chain of several): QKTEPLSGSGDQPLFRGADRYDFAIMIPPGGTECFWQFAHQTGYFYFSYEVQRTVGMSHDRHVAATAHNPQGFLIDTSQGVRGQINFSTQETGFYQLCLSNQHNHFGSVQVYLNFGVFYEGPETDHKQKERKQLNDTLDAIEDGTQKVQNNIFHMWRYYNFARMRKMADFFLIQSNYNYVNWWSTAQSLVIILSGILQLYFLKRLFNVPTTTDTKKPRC

B1: 1-717 (ssRNA)
RNA: GGAGGACGAUGCGGUAAUUCUCAGGAGGUGCGGAACGGGAUAUGGAUUGUUCGCCAGACGACUCGCUGAGGAUCCGAGA
modifications: 2'-F pyrimidines (2'-F-dCTP, 2'-F-dUTP in selection transcription)
As to B1, the binding result is on record as “binds”.
